In general, EC50 refers to the concentration that produces a half-maximal response. Usually Ki stands for a dissociation constant, usually derived from enzyme kinetics or from competition with a known ligand.

Data on one substance can be found in article PMC10609148, “Hexa-Histidine, a Peptide with Versatile Applications in the Study of Amyloid-β(1–42) Molecular Mechanisms of Action” (Molecules, 2023).

In assay [1] the target is human recombinant cytochrome b5 reductase (Cb5R) with a His6-tag (human). As to the kind of experiment: other fluorescence titration; FAD fluorescence (ex 460 nm, em 520 nm) of 32 nM Cb5R with a His6-tag titrated with Aβ peptides; 20 mM phosphate, 0.1 mM DTPA, pH 7, 25 °C; one-site fit; apparent constant, in peptide monomers.
The target is the same in assay [2]. As to the kind of experiment: inhibition of enzyme activity (NADH-dependent Cb5 reductase activity); 0.11 μg/mL Cb5R with a His6-tag, 5 μM Cb5, 0.25 mM NADH, rising Aβ peptide; absorbance at 550 nm; 20 mM phosphate, 0.1 mM DTPA, pH 7, 25 °C; fit to one inhibitor binding site; in Aβ monomers.

On to Aβ(25–35) (peptide), for which, in assay [1], the EC50 is 75 nM and the half-saturation constant in the fitted one-site equation is 99.3. In addition, in assay [2], the Ki fell in the range of 50 to 60 nM.
